Source: US20110268733A1 (Daiichi Sankyo, published 2011)
Where a chain is given by its changes, count along the chain named. In names and notes the source's numbering stands.

T1: human Siglec-15 V-set domain (human, UniProt Q6ZMC9 39-165)
T1 construct: The His tag was cleaved with thrombin before use; also called human V-set domain
T1 sequence: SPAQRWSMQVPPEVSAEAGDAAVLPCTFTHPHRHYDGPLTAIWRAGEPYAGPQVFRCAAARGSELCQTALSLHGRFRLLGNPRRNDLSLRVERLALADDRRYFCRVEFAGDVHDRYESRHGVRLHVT

B1: rat anti-mouse Siglec-15 monoclonal antibody #32A1 (antibody, rat IgG2a, V domains shown)
VH: EVQILETGGGLVKPGGSLRLSCATSGFNFNDYFMNWVRQAPEKGLEWVAQIRNKIYTYATFYAESLEGRVTISRDDSESSVYLQVSSLRAEDTAIYYCTRSLTGGDYFDYWGQGVMVTVSL
VL: DIVLTQSPALAVSLGQRATISCRASQSVTISGYSFIHWYQQKPGQQPRLLIYRASNLASGIPARFSGSGSGTDFTLTINPVQADDIATYFCQQSRKSPWTFAGGTKLELRRA
notes: Whole rat IgG purified from nude mouse ascites; Cloning primers were designed from the rat IgG2a heavy chain and kappa light chain constant regions; also called #32A1 antibody; rat #32A1 antibody
B2: h#32A1-T1 (antibody, human IgG1, kappa, V domains shown)
VH: EVQLVESGGGLVQPGGSLRLSCAASGFNFNDYFMNWVRQAPGKGLEWVAQIRNKIYTYATFYAESLEGRFTISRDNAKNSLYLQMNSLRAEDTAVYYCARSLTGGDYFDYWGQGTLVTVSS
VL: DIVMTQSPDSLAVSLGERATINCRASQSVTISGYSFIHWYQQKPGQPPKLLIYRASNLASGVPARFSGSGSGTDFTLTISSLQAEDVAVYYCQQSRKSPWTFGGGTKVEIKR
notes: Human IgG1 / kappa constant regions; also called humanized antibody of rat anti-mouse Siglec-15 #32A1 T1; h#32A1-T1H / h#32A1-T1L
B3: h#32A1-T6 (antibody, human IgG1, kappa, V domains shown)
VH: B2 VH with L4V, A24T, G42E, F70V, A77S, N79S, S80T, L81V, N86S, A99T
VL: B2 VL with M4L, N22S, K49R, V62I, V89T, Y91F, G103A
notes: Human IgG1 / kappa constant regions; also called humanized antibody of rat anti-mouse Siglec-15 #32A1 T6; h#32A1-T6H / h#32A1-T6L
B4: h#32A1-T3 (antibody, human IgG1, kappa, V domains shown)
VH: B1 VH with L5V, T7S, K13Q, V85M, I95V, V115T, M116L, L121S
VL: B2 VL with M4L, N22S, P47Q, K49R, V62I, V89T, Y91F, G103A
notes: Human IgG1 / kappa constant regions; also called humanized antibody of rat anti-mouse Siglec-15 #32A1 T3; h#32A1-T3H / h#32A1-T3L
B5: h#32A1-T2 (antibody, human IgG1, kappa, V domains shown)
VH: B2 VH with G42E, F70V, N86S
VL: B2 VL with N22S, K49R, Y91F, G103A
notes: Human IgG1 / kappa constant regions; also called humanized antibody of rat anti-mouse Siglec-15 #32A1 T2; h#32A1-T2H / h#32A1-T2L
B6: h#32A1-T5 (antibody, human IgG1, kappa, V domains shown)
VH: B2 VH with L4V, A24T, A77S, N79S, S80T, L81V, A99T
VL: B2 VL with M4L, V62I, V89T, G104Q
notes: Human IgG1 / kappa constant regions; also called humanized antibody of rat anti-mouse Siglec-15 #32A1 T5; h#32A1-T5H / h#32A1-T5L

Tests used:
human Siglec-15-Fc [1] = target: T2, human Siglec-15-Fc (human); test: ELISA, human Siglec-15-Fc immobilized at 5 µg/ml, antibody 1.28 to 20,000 ng/ml
T2 construct: Expressed in 293-F cells, purified on Protein A; also called soluble human Siglec-15-Fc; human Siglec-15-Fc protein
Procedure: The property of the rat anti-mouse Siglec-15 monoclonal antibody binding to human Siglec-15 protein was evaluated by an ELISA method. The human Siglec-15-Fc protein (subjected to replacement with A-PBS) produced in b) of Example 12 was diluted to 5 μg/ml with 0.1 M sodium carbonate buffer (pH 9.5), and the resulting solution was added to a 96-well plate (manufactured by Nalge Nunc International, Inc., Cat. No. 430341) at 100 μl/well. After the plate had been left at room temperature for 1 hour, the solution was removed and a washing buffer (phosphate-buffered saline containing 0.05% Tween 20) was added at 300 μl/well and then removed. After this washing procedure had been performed one more time, phosphate-buffered saline containing 25% BlockAce (manufactured by Dainippon Sumitomo Pharma Co., Ltd.) was added at 200 μl/well, and the plate was left at room temperature for 1 hour, whereby blocking was performed. The liquid was removed, and the plate was washed twice with 300 μl/well of the washing buffer. […] After developing the color, an absorbance at 492 nm was measured using a microplate reader (manufactured by Nihon Molecular Devices Corporation).

[2] = target: T1, human Siglec-15 V-set domain; test: competitive ELISA: V-set domain (0 to 20 µg/ml) pre-mixed with #32A1 (2 µg/ml), then added to captured human Siglec-15-Fc
Procedure: In a 96-well maxi-sorp plate (manufactured by Nunc, Inc., model number: 442404), 100 μl of a goat anti-human Fc antibody (Jackson ImmunoResearch, Inc., model number: 109-005-098) (1.25 μg/ml) was added to each well and immobilized overnight at 4° C. After the 96-well maxi-sorp plate was washed twice with PBS, 100 μl of the soluble human Siglec-15-Fc (1 μg/ml) was added to each well and immobilized at room temperature for 1 hour. Thereafter, 300 μl of a 5% skim milk/PBS solution was added to each well, and blocking of the wells was performed at room temperature for 3 hours. In the meantime, 2 μg/ml of the rat anti-mouse Siglec-15 monoclonal antibody #32A1 was mixed with an equivalent amount of 0, 0.032, 0.16, 0.8, 4, or 20 μg/ml of the human Siglec-15 V-set domain, and a reaction was allowed to proceed at room temperature for 1.5 hours. After the 96-well maxi-sorp plate had been washed twice with PBS, 100 μl of the mixed solution of the rat anti-mouse Siglec-15 monoclonal antibody #32A1 and the human Siglec-15 V-set domain was added thereto, and a reaction was allowed to proceed at room temperature for 1 hour. […] Then, 100 μl of a reaction stopping solution was added thereto, and an absorbance at 405 nm was measured.

human Siglec-15-Fc [3] = target: T2, human Siglec-15-Fc; test: ELISA, human Siglec-15-Fc immobilized at 1 µg/ml, antibody 1 to 0.004 µg/ml, fluorescence read-out

T2 sequence (chain, as listed by the source limits assumed): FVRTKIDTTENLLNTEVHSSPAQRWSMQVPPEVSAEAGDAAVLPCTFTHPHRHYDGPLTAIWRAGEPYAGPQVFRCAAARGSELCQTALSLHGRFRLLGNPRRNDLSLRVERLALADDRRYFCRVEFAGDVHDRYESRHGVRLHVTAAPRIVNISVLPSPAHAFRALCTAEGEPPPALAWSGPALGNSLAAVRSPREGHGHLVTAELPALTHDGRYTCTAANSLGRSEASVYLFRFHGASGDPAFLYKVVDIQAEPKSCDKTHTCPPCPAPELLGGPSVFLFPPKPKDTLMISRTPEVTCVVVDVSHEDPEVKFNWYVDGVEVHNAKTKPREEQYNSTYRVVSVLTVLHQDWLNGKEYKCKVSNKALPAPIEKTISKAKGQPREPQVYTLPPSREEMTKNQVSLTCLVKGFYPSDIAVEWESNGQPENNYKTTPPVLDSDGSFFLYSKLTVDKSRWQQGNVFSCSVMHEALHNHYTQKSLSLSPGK

Binder | binding result (human Siglec-15-Fc [1]) | binding result [2] | binding result (human Siglec-15-Fc [3])
B1 | binds | binds | –
B2 | – | – | binds
B3 | – | – | binds
B4 | – | – | binds
B5 | – | – | binds
B6 | – | – | binds
